One molecule from patent US20230331816A1, “A METHOD FOR PREPARING PORCINE MYOGLOBIN USING ESCHERICHIA COLI” (iNtRON Biotechnology, Inc., priority 2020, published 2023) can be followed below.

This assay concerns iron-deficiency-anemia-induced animals. It is filed as in vivo, Sprague-Dawley rats. The protocol:
The composition containing porcine myoglobin prepared according to the present invention was administered to iron-deficiency-anemia-induced animals, whereby the effectiveness of the composition containing porcine myoglobin on alleviating anemia was evaluated. Specifically, after 2 weeks acclimation period, thirty 9-week old Sprague-Dawley rats (female) were divided into 3 groups of 10 rats per group, among which one group was fed with normal feed in an amount of 10% of body weight daily for […] (Group 1; control), and the remaining two groups were fed with iron-deficient feed in an amount of 10% of body weight daily for 6 weeks to induce iron-deficiency anemia (Group 2 and Group 3). After 6 weeks of feeding, it was confirmed that iron-deficiency anemia was induced in the individual rat belonging to Group 2 and Group 3. Then, one of the anemia-induced groups was orally administered once a day with saline alone (Group 2), and the other anemia-induced group was orally administered once a day with solution containing porcine myoglobin (0.1 mg Fe/500 μl solution, Group 3). The administration continued for 5 weeks. During 5 weeks of administration to Group 2 and Group 3, Group 1 was continuously fed with normal feed, and Group 2 and Group 3 were fed with iron-deficient feed. […] After 5 weeks of administration, blood was collected, and whether anemia was alleviated was evaluated.

[1] abbreviates: female Sprague-Dawley rats on iron-deficient feed, oral once a day, 0.1 mg Fe/500 μl solution, 5 weeks.

B1: porcine myoglobin: porcine myoglobin consisting of a globin of SEQ ID NO: 1 and a heme of formula 1, made with Escherichia coli (protein)
chain: MGLSDGEWQLVLNVWGKVEADVAGHGQEVLIRLFKGHPETLEKFDKFKHLKSEDEMKASEDLKKHGNTVLTALGGILKKKGHHEAELTPLAQSHATKHKIPVKYLEFISEAIIQVLQSKHPGDFGADAQGAMSKALELFRNDMAAKYKELGFQG
modifications: heme; Porcine myoglobin
Take B1: the “Effectiveness at alleviating iron-deficiency anemia” value (conclusion from blood analysis after 5 weeks of administration) is given as “effective at alleviating iron-deficiency anemia”. Further, under setting [1], the “Blood test: Hematocrit” value stood at 39.8 ± 1.0%, the “Blood test: Hemoglobin content” value is 13.7 ± 0.6 g/dL and the “Weight of rats on 5 weeks after administration” value amounted to 327.2 ± 3.1 g.
